The source of these data is patent publication US20250122303A1, “TREATMENT AND PREVENTION OF CANCER USING HER3 ANTIGEN-BINDING MOLECULES” (Hummingbird Bioscience Pte. Ltd., priority 2021, published 2025).

For data set [1] the following is noted: clinical, literature, cited from earlier work.
For data set [2], the target named is T1, human HER3 (Homo sapiens, UniProt P21860). The data set is described as follows: Immunohistochemistry on frozen human tissue arrays. To be noted: mIgG2a format. Also noted: Arrays of commercially-available frozen tissue sections were obtained; from tissue; host or cells: frozen human normal and malignant tissue section arrays. The method, then:
Anti-HER3 antibody 10D1F in mIgG2a format was evaluated for its ability to be used in immunohistochemistry for the detection of human HER3 protein.
Processing of sections was performed using Bond reagents (Leica Biosystems). Arrays of commercially-available frozen tissue sections were obtained. Slides were dried in a desiccator for 10 min and then subjected to the following treatments, with water washes and/or TBS-T rinses between steps: (i) fixation by treatment with 100% acetone for 10 min at room temperature; (ii) endogenous peroxidase blocking by treatment with 3% (v/v) H2O2 for 15 min at room temperature; (iii) blocking by treatment with 10% goat serum for 30 min at room temperature, (iv) incubation with 10D1 F-mIgG2a at 1:250 dilution of a 6.2 mg/ml solution overnight at 4° C., (v) incubation with HRP-polymer conjugated goat anti-mouse antibody for 30 min at room temperature, and (vi) development with Bond Mixed DAB Refine for 5 min at room temperature, followed by rinsing with deionised water and 1× Bond Wash to stop the reaction.
Slides were then dehydrated, mounted in synthetic mounting media and scanned with high resolution.

The target of data set [3] is human HER3:human NRG1 complex (Homo sapiens, UniProt P21860). Kind of data set: BLI binding to HER3-NRG1 complex ('open' conformation). To be noted: presence of NRG1 (1:1 molar ratio). The method, then:
(§1) In further experiments, anti-HER3 antibodies were analysed in order to determine the affinity of binding to human HER3 in the context of a human HER3:human NRG1 complex (that is, HER3 provided in the ligand-bound, ‘open’ conformation), as compared to the affinity of binding to human HER3 in the absence of NRG1 complex (that is, HER3 provided in the unbound, ‘closed’ conformation).
(§2) Binding of anti-HER3 antibodies to human HER3 was evaluated by BLI. Briefly, anti-Human IgG Capture (AHC) sensors (ForteBio) were loaded with anti-HER3 IgG antibodies (25 nM). Kinetic measurements were performed in absence or presence of NRG1. NRG1 was used at 1:1 molar ratio with HER3 wherein the complex was allowed to form at RT for 2 h. His-tagged human HER3 or HER3-NRG1 complexes were loaded to antibody coated AHC sensors at different concentrations for 120 s, followed by a 120 s dissociation time. All measurements were performed at 25° C. with agitation at 1000 rpm. Sensorgrams were referenced for buffer effects and then analyzed using the Octet QK384-software (ForteBio). Kinetic responses were globally fitted using a one-site binding model to obtain values for association (Kon), dissociation (Koff) rate constants and the equilibrium dissociation constant (KD).
In general terms: Biolayer interferometry detects binding as a change in optical thickness at a sensor tip.

Data set [4] has as its target T1, human HER3. Kind of data set: Global affinity study, Bio-Layer Interferometry (Octet QK384). Type of data set: binding. To be noted: BLI, His-tagged human HER3, IgG1 format, 25° C.; read-out: Affinity (KD). The procedure: The anti-HER3 antibody clones in IgG1 format were analysed for binding affinity to human HER3. Bio-Layer Interferometry (BLI) experiments were performed using the Octet QK384 system (ForteBio). anti-Human IgG Capture (AHC) Octet sensor tips (Pall ForteBio, USA) were used to anti-HER3 antibodies (25 nM). All measurements were performed at 25° C. with agitation at 1000 rpm. Kinetic measurements for antigen binding were performed by loading His-tagged human HER3 antigens at different concentrations for 120 s, followed by a 120 s dissociation time by transferring the biosensors into assay buffer containing wells. Sensograms were referenced for buffer effects and then fitted using the Octet QK384 user software (Pall ForteBio, USA). Kinetic responses were subjected to a global fitting using a one site binding model to obtain values for association (Kon), dissociation (Koff) rate constants and the equilibrium dissociation constant (KD). Only curves that could be reliably fitted with the software (R^2>0.90) were included in the analysis.
Bio-Layer Interferometry (BLI) experiments were performed using the Octet QK384 system (ForteBio). […] Binding was detected using titrated HIS-tagged human HER3 in steps of baseline (60 s), loading (120 s), baseline2 (60 s), association (120 s), dissociation (FcA 120 s, FcB 600 s) and regeneration (15 s). Sensorgrams were analysed as described in Example 3.3. […]

Data set [5] concerns the target T1, human HER3. Kind of data set: BLI binding to HER3 in absence of NRG1 ('closed' conformation). The method, then: as §1, §2
The target in data set [6] is T2, human EGFR (Homo sapiens, UniProt P00533).
T2 construct: purchased Sino Biological Inc., China
Kind of data set: ELISA specificity, human EGFR. It is filed as binding. Conditions: antibody up to 10 μg/ml. The procedure: (§3) ELISAs were used to determine the binding specificity of the antibodies. The antibodies were analysed for binding to human HER3 polypeptide, as well as respective mouse, rat and monkey homologues of HER3 (Sino Biological Inc., China). The antibodies were also analysed for their ability to bind to human EGFR and human HER2 (Sino Biological Inc., China).
(§4) ELISAs were carried out according to standard protocols. Briefly, 96-well plates (Nunc, Denmark) were coated with 0.1 μg/ml of target polypeptide in phosphate-buffered saline (PBS) for 16 h at 4° C. After blocking for 1 h with 1% BSA in Tris buffer saline (TBS) at room temperature, the anti-HER3 antibody was serially diluted with the highest concentration being 10 μg/ml, and added to the plate. Post 1 h incubation at room temperature, plates were washed three times with TBS containing 0.05% Tween 20 (TBS-T) and were then incubated with a HRP-conjugated anti-His antibody (Life Technologies, Inc., USA) for 1 h at room temperature. […] The reaction was stopped with 2M H2SO4, and OD was measured at 450 nm.
(§5) The antibodies were analysed for their ability to bind to human HER3 polypeptide as well as human HER1 (EGFR) and human HER2 (Sino Biological Inc., China). […]
(§6) ELISAs were carried out according to standard protocols. […] The reaction was stopped with 2M H2SO4, and OD was measured at 450 nm.
Background: ELISA stands for enzyme-linked immunosorbent assay.

For data set [7], the target named is T3, human HER2 (Homo sapiens, UniProt P04626).
T3 construct: purchased Sino Biological Inc., China
Kind of data set: ELISA specificity, human HER2. Type of data set: binding. Conditions: antibody up to 10 μg/ml. The method, then: as §3, §4, §5, §6

The test system of data set [8] is A549 cell-line derived mouse model of lung adenocarcinoma. The data set is described as follows: A549 cell-line derived xenograft model. Type of data set: in vivo. Conditions: A549, NPG mice, IP weekly 500 μg, 4 doses.
For data set [9], the system named is cynomolgus macaque HER3. The data set is described as follows: ELISA cross-reactivity, cynomolgus macaque HER3. It is filed as binding. The procedure: as §3
(§7) ELISAs were carried out according to standard protocols. Briefly, 96-well plates (Nunc, Denmark) were coated with 0.1 μg/ml of target polypeptide in phosphate-buffered saline (PBS) for 16 h at 4° C. After blocking for 1 h with 1% BSA in Tris buffer saline (TBS) at room temperature, the anti-HER3 antibody was serially diluted with the highest concentration being 10 μg/ml, and added to the plate. Post 1 h incubation at room temperature, plates were washed three times with TBS containing 0.05% Tween 20 (TBS-T) and were then incubated with a HRP-conjugated anti-His antibody (Life Technologies, Inc., USA) for 1 h at room temperature. After washing, plates were developed with colorimetric detection substrate 3,3′,5,5′-tetramethylbenzidine (Turbo-TMB; Pierce, USA) for 10 min. The reaction was stopped with 2M H2SO4, and OD was measured at 450 nm. […]

Data set [10] addresses T4, rat HER3 (Rattus norvegicus, UniProt Q62799).
T4 construct: purchased Sino Biological Inc., China
The data set is described as follows: ELISA cross-reactivity, rat HER3. It is filed as binding. The method, then:
as §3, §7

In data set [11] the target is T5, mouse HER3 (Mus musculus, UniProt Q61526).
T5 construct: purchased Sino Biological Inc., China
Kind of data set: ELISA cross-reactivity, mouse HER3. Type of data set: binding. The procedure:
as §3, §7

T4 sequence (Q62799 20-1339): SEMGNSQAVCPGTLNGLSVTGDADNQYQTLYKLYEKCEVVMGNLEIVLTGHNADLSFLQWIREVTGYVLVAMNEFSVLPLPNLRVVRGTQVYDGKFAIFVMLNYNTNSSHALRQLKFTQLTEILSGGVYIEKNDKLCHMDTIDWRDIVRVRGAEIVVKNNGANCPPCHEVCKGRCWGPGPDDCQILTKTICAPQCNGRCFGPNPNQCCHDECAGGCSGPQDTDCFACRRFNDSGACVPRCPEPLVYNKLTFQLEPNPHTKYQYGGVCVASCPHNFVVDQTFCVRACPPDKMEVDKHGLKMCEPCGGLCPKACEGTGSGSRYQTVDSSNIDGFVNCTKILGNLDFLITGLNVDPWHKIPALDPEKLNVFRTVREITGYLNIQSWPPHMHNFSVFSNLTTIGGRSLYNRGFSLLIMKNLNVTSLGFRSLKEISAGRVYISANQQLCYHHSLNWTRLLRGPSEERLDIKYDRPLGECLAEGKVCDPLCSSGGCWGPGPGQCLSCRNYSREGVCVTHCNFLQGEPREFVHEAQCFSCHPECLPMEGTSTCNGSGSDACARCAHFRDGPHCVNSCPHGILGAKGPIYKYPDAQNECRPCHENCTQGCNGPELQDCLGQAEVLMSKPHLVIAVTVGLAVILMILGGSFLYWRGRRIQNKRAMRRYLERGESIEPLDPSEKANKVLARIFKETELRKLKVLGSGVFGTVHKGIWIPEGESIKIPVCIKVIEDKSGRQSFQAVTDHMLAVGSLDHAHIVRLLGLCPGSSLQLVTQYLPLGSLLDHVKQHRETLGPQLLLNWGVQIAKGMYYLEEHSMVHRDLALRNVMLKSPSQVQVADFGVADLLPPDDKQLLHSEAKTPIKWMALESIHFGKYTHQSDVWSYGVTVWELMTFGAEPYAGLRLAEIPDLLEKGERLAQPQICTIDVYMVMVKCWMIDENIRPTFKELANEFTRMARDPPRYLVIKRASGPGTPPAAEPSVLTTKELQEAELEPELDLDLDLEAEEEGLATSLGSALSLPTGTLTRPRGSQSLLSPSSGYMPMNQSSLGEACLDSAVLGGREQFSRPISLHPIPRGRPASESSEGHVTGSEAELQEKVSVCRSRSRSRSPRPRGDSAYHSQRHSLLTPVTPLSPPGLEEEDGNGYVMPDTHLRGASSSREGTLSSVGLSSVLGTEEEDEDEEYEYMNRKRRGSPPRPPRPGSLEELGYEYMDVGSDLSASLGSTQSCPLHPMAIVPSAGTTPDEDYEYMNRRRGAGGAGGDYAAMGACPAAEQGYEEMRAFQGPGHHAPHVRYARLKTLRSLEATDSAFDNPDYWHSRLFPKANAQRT
T5 sequence (Q61526 20-1339): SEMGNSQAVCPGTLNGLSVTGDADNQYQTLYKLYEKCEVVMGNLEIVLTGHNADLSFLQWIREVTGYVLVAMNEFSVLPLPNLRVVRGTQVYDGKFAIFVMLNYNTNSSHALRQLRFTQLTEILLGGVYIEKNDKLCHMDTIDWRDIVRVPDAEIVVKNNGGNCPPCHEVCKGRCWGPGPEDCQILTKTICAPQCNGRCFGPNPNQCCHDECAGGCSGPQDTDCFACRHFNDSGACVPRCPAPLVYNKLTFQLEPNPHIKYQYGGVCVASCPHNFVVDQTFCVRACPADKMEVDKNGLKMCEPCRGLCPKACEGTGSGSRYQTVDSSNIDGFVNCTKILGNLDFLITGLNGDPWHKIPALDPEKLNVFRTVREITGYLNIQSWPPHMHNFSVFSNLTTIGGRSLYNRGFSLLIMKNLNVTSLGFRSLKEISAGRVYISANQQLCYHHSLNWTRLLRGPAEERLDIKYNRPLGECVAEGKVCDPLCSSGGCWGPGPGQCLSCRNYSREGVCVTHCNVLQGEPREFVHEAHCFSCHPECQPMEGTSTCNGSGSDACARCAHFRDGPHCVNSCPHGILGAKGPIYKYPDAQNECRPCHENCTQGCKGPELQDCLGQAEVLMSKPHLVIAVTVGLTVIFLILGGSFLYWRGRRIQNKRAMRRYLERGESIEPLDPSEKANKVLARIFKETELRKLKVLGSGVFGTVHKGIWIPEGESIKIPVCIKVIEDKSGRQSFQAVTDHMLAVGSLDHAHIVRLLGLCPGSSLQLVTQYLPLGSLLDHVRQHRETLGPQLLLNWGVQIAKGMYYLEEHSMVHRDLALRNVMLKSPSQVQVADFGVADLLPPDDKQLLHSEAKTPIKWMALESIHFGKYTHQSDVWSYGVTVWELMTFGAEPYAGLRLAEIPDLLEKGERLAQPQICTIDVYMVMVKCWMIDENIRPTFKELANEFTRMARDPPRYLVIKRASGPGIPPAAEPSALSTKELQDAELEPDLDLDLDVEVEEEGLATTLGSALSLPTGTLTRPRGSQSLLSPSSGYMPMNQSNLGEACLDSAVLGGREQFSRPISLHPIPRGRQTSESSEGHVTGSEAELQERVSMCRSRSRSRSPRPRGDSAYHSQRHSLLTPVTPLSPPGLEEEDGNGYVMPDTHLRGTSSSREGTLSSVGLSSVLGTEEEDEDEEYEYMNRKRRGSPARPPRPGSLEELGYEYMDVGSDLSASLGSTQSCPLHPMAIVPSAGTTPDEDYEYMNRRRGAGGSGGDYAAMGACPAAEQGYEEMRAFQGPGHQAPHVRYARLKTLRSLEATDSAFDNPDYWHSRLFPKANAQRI

B1: MM-121: anti-HER3 antibody blocking binding of heregulin (NRG) to HER3 (antibody, chains of the INN, looked up)
heavy: EVQLLESGGGLVQPGGSLRLSCAASGFTFSHYVMAWVRQAPGKGLEWVSSISSSGGWTLYADSVKGRFTISRDNSKNTLYLQMNSLRAEDTAVYYCTRGLKMATIFDYWGQGTLVTVSSASTKGPSVFPLAPCSRSTSESTAALGCLVKDYFPEPVTVSWNSGALTSGVHTFPAVLQSSGLYSLSSVVTVPSSNFGTQTYTCNVDHKPSNTKVDKTVERKCCVECPPCPAPPVAGPSVFLFPPKPKDTLMISRTPEVTCVVVDVSHEDPEVQFNWYVDGVEVHNAKTKPREEQFNSTFRVVSVLTVVHQDWLNGKEYKCKVSNKGLPAPIEKTISKTKGQPREPQVYTLPPSREEMTKNQVSLTCLVKGFYPSDIAVEWESNGQPENNYKTTPPMLDSDGSFFLYSKLTVDKSRWQQGNVFSCSVMHEALHNHYTQKSLSLSPG
light: QSALTQPASVSGSPGQSITISCTGTSSDVGSYNVVSWYQQHPGKAPKLIIYEVSQRPSGVSNRFSGSKSGNTASLTISGLQTEDEADYYCCSYAGSSIFVIFGGGTKVTVLGQPKAAPSVTLFPPSSEELQANKATLVCLVSDFYPGAVTVAWKADGSPVKVGVETTKPSKQSNNKYAASSYLSLTPEQWKSHRSYSCRVTHEGSTVEKTVAPAECS
As to B1, the “T½ (terminal half life)” value in data set [1] is given as 10.5 days. Further, in [1] (normalised to per mg/kg dosed), the “Cmax (μg/ml) normalised to per mg/kg dosed” value is 24 to 25 µg/mL.

B2: 10D1_c89: clone 10D1F comprises VH of SEQ ID NO:36 and VL of SEQ ID NO:83 (antibody, V domains shown)
VH: QVQLQESGPGLVKPSQTLSLTCTVSGYSITSGYSWHWIRQHPGKGLEWIGSIRYSGGTDYNPSLKSLVTISADTSKNQFSLKLSSVTAADTAVYYCARMTTAPWYPFDYWGQGTTVTVSS
VL: DIQMTQSPSSVSASVGDRVTITCKASQIVGSNVAWYQQKPGKAPEPLIYSASYLYSGVPSRFSGSGSGTDFTLTISSLQPEDFATYYCQQYSSHPLTFGQGTKLEIK
B2: the “immunohistochemical staining of malignant and normal human tissue” value in data set [2] is on record as “preferentially stained malignant human tissue sections, with low cross-reactivity to normal tissue”. The “affinity of binding to human HER3” value in data set [3] and in [5] was “sub-picomolar affinity” in each case. For the same molecule, in [4], the equilibrium dissociation constant (Kd) came out at 0.0726 nM.

B3: 4-35-B2: anti-HER3 antibody clone, VH SEQ ID NO:127, VL SEQ ID NO:135 (antibody, V domains shown)
VH: EIQLQQSGPELVKPGASVKVSCKASGYSFTDYNMYWVKQSHGKSLEWIGHINPYNGGTTYNQKFKGRATLTVDKSSSTAFMHLNSLTSEDSAVYFCVSLRWGAMDYWGQGTSVTVSS
VL: QIVLTQSPALMSASPGEKVTMTCSASSSVSYMYWYQQKPRSSPKPWIYLTSNLASGVPARFSGSGSGTSYSLTISSMEAEDAATYYCQQWNSNPYTFGGGTKLEIK
For B3, the “binding to human EGFR (HER1)” value in data set [6] is given as “found to bind”. Further, in data set [7], the “binding to human HER2” value was “found to bind”. Also, the “inhibition of tumor growth” value in data set [8] is approximately 63%. The “binding / cross-reactivity with cynomolgus macaque HER3” value in data set [9] was “substantial cross-reactivity”. Further, the “binding / cross-reactivity with rat HER3” value in data set [10] is listed as “substantial cross-reactivity”. In data set [11], the “binding / cross-reactivity with mouse HER3” value was “substantial cross-reactivity”.

By Kd is commonly meant the constant that tells how readily two partners part at equilibrium.
